In publication PMC7589778:

Biological target: Human mitochondrial LysRS with a C-terminal HA-tag (human) (UniProt Q15046)
Assay: AlphaScreen or HTRF

## Integrase from HIV-2_TRA with a C-terminal His-tag (enzyme)
  Kd: 3.5 nM

## Integrase from HIV-2_ALL with a C-terminal His-tag (enzyme)
  Kd: 2.4 nM
